How the values were obtained:
H1299 cells [1] = test: Single, live cell imaging: duration of mitosis phases of cells expressing PTTG-EGFP; format: cell-based, human; settings: 18 hours after transfection
Description: (§1) Human H1299 cells were grown in Dulbeccos's Modified Eagle Medium (DMEM) with 10% Fetal Bovine Serum (FBS) and transfected with Lipofectamine 2000 (obtained from Invitrogen Corporation; Carlsbad, Calif.; hereinafter “Invitrogen”). PTTG-EGFP and p55CDC-EGFP were constructed by cloning PTTG or p55CDC (obtained from Amgen, Inc.; Thousand Oaks, Calif.) into pEGFP-N3 (obtained from BD Biosciences Clontech; Palo Alto, Calif.; hereinafter “Clontech”). Non-degradable mutant PTTG-EGFP was obtained from Dr. Chris McCabe (University of Birmingham, England, UK). EGFP was at the C-terminus of PTTG or p55CDC. Cells were studied (microscopy or by Western blot) 18 to 24 hours after transfection.
(§2) Observation of individual live cells over 48 hours or longer was performed by incubating cells in an FCS2 Closed Perfusion System (obtained from Bioptechs; Butler, Pa.). Cells were perfused with CO2-independent L15 medium (obtained from Invitrogen) supplemented with 10% FBS and penicillin/streptomycin and saturated with ambient air. Perfusion chamber temperature was set to 37° C., and cells were grown in the perfusion system for up to a week until confluency.
(§3) The perfusion chamber was placed on an inverted fluorescence microscope (obtained from Nikon Corporation; Melville, N.Y.) and observed with a 40× extra-long working distance objective lens. Cells were observed from every few seconds to every several hours depending on the speed of cell changes. Durations of mitosis phases were determined by counting the minutes between two sequential mitotic milestones. Phase-contrast and EGFP fluorescent images were taken simultaneously at frequencies ranging from every minute (e.g., during metaphase to anaphase transition) to every few hours (e.g., after telophase), with a CCD digital camera.
(§4) Relative fluorescence intensity was objectively determined with the application of two neutral density filters (NDFs). Each NDF reduces incident light by 50%. High fluorescence was defined when a cell was clearly visualized after application of two NDFs. Medium fluorescence was defined as a cell clearly visualized after application of one but not two NDFs. Low fluorescence was defined as a cell only visualized when neither NDF was applied.
As depicted in Table 1, prophase (Pro), metaphase (Meta), anaphase (Ana), and telophase (Telo) durations were recorded (in minutes) in untransfected control cells (Control), cells expressing EGFP only (EGFP), and in cells expressing PTTG-EGFP (PTTG-EGFP) 18 hours after transfection. […] For some cells expressing PTTG-EGFP, no distinct anaphase or telophase was seen because of abnormal chromosome segregation and cytokinesis.

H1299 cells [2] = test: Single, live cell imaging: destiny of mitosis (PTTG degradation, chromosome segregation, cytokinesis, aneuploidy); format: cell-based, human
Description: as §1, §2, §3, §4
As failure of PTTG degradation is associated with chromosome non-segregation, an EGFP-tagged non-degradable mutant PTTG (DM-PTTG-EGFP) was expressed in H1299 cells and chromosome segregation and cytokinesis of individual live cells observed (FIG. 6; FIG. 5A). Similar to the wild-type PTTG, DM-PTTG localizes to mitotic spindles (FIGS. 5B-5G) and chromosomes (data not shown). […] Most (51/55) cells underwent asymmetrical cytokinesis, while some cells decondensed chromosomes; macronuclei ensued in both cases. During asymmetrical cytokinesis, chromosomes and mitotic spindles were closely attached and moved to one cell pole (FIGS. 5B-5G). The cytokinesis furrow occurred roughly at the position of the distal centrosome (FIGS. 5C and 5D). Both centrosomes were retained in the daughter cell containing chromosomes (FIGS. 5E and 5F).

[3] = High expression level (fluorescence)
[4] = Low expression level (fluorescence)
[5] = Medium expression level (fluorescence)

B1: PTTG-EGFP: EGFP-tagged PTTG (pituitary tumor transforming gene product), EGFP at the C-terminus, expressed in H1299 cells by transfection (protein, UniProt O95997 2-202, looked up)
Securin: ATLIYVDKENGEPGTRVVAKDGLKLGSGPSIKALDGRSQVSTPRFGKTFDAPPALPKATRKALGTVNRATEKSVKTKGPLKQKQPSFSAKKMTEKTVKAKSSVPASDDAYPEIEKFFPFNPLDFESFDLPEEHQIAHLPLSGVPLMILDEERELEKLFQLGPPSPVKMPSPPWESNLLQSPSSILSTLDVELPPVCCDIDI
modifications: C-terminal EGFP tag
notes: EGFP-tagged PTTG (pituitary tumor transforming gene product), EGFP at the C-terminus, expressed in H1299 cells by transfection
Duration of metaphase (Meta) (H1299 cells [1]; [3]): 112 ± 31 min | Duration of prophase (Pro) (H1299 cells [1]; [3]): 59 ± 7 min | Duration of anaphase (Ana) (H1299 cells [1]; [4]): 4 ± 0 min | Duration of metaphase (Meta) (H1299 cells [1]; [4]): 26 ± 4 min | Duration of prophase (Pro) (H1299 cells [1]; [4]): 25 ± 3 min | Duration of telophase (Telo) (H1299 cells [1]; [4]): 5 ± 0 min | Duration of anaphase (Ana) (H1299 cells [1]; [5]): 4 ± 0 min | Duration of metaphase (Meta) (H1299 cells [1]; [5]): 49 ± 16 min | Duration of prophase (Pro) (H1299 cells [1]; [5]): 35 ± 12 min | Duration of telophase (Telo) (H1299 cells [1]; [5]): 5 ± 0 min | Cells with anaphase bridge (H1299 cells [2]; 65 cells expressing PTTG-EGFP observed): 2/65 | Time of degradation prior to the onset of anaphase (H1299 cells [2]; cells that underwent apparently normal mitosis): about 1 minute | Aneuploidy of daughter cells (H1299 cells [2]; parent cells expressing high levels): All daughter cells | Aneuploidy rate of daughter cells (H1299 cells [2]; parent cells expressing low levels): 18% | Aneuploidy rate of daughter cells (H1299 cells [2]; parent cells expressing medium levels): 63%

From US20030190641A1, “Live cell method for observing cellular processes” (CEDARS-SINAI MEDICAL CENTER, priority 2002, published 2003)
